From patent US20180326084A1 (Genmab, published 2018)
Residue numbers refer to the chain shown, from its start.

Experiments:
human AXL (full length) [1] = biological target: T1, human AXL (full length) (human, UniProt P30530 26-894); test: FMAT screening assay, HEK-293F cells transiently expressing human AXL
T1 construct: also called TH1021-AXL; TH1021-hAXL

[2] = biological target: T2, human AXL with a cynomolgus monkey extracellular domain (ECD) (cynomolgus monkey (Macaca …, UniProt P30530 26-894)); test: flow cytometry, HEK293T cells with human AXL carrying cynomolgus ECD
T2 construct: Chimera on transfected HEK293T cells; also called cynomolgus AXL; cynomolgus AXL-ECD
T2 chain: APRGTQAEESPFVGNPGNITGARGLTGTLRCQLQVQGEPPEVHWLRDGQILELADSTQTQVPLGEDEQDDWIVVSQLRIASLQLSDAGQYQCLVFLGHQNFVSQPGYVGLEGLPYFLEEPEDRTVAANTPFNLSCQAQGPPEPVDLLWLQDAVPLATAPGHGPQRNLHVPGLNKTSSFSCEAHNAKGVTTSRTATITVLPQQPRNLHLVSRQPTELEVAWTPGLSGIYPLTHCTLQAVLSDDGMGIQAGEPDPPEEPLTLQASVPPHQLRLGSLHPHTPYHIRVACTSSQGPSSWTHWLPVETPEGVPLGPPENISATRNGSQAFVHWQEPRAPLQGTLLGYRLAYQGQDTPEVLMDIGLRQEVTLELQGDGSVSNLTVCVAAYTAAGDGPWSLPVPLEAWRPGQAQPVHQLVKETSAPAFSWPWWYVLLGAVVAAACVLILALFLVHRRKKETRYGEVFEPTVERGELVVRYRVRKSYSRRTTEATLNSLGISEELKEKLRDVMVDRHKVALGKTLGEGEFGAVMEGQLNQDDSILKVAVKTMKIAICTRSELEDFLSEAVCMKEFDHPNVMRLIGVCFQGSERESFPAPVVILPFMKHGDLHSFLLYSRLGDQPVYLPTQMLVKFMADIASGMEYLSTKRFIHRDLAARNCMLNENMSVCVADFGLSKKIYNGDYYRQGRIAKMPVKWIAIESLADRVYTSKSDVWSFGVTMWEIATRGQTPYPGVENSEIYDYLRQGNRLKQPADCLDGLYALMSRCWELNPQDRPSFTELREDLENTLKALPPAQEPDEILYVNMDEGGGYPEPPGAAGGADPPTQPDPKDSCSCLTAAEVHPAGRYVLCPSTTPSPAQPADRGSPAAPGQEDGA

AXLECDHis = biological target: T3, AXLECDHis (human, UniProt P30530 26-447); test: BLI (Octet), IgG on anti-human Fc sensor, AXLECDHis analyte
T3 construct: theoretical mass 46 kDa used; also called extracellular domain (ECD) of human AXL (aa 1-447) with a C-terminal His tag; soluble recombinant AXL extracellular domain

human AXL (full length) [3] = biological target: T1, human AXL (full length); test: flow cytometry, HEK293T cells with full-length human AXL
[4] = biological target: T4, Homo sapiens AXL-Mus musculus FN2 domain (p33-AXL-mFN2) (human-mouse chimera, UniProt P30530 26-894); test: flow cytometry, 1 µg/mL antibody, transfected HEK293F cells
T4 construct: Expressed in HEK293F cells; also called hsAXL-mmFN2; TH1021-mFN2
T4 chain: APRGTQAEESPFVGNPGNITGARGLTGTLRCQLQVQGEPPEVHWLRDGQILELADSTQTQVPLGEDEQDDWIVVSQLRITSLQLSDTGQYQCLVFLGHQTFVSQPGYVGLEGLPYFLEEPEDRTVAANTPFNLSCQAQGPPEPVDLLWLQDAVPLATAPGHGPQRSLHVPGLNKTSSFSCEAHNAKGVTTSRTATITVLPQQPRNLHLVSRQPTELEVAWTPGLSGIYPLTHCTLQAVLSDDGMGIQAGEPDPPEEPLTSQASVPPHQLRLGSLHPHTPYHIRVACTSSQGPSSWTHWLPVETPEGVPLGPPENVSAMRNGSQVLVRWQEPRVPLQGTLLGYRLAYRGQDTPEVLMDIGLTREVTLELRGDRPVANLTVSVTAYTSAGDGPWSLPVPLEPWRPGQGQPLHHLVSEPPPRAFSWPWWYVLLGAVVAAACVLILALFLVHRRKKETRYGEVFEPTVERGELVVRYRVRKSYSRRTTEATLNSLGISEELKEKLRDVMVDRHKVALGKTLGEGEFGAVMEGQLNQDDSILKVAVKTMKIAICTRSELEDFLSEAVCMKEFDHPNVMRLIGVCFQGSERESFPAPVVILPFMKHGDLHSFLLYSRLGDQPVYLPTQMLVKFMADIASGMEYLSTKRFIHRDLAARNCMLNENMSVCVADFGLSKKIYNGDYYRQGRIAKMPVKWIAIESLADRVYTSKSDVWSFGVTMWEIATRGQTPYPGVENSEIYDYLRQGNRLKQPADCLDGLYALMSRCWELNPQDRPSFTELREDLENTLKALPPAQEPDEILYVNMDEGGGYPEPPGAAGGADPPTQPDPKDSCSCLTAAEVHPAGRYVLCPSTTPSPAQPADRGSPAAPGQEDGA

[5] = biological target: T5, Homo sapiens AXL-Mus musculus Ig1 domain (p33-AXL-mIg1) (human-mouse chimera, UniProt P30530 8-894); test: as above
T5 construct: Expressed in HEK293F cells; also called hsAXL-mmIg1; hsAXL-mmIgl
T5 chain: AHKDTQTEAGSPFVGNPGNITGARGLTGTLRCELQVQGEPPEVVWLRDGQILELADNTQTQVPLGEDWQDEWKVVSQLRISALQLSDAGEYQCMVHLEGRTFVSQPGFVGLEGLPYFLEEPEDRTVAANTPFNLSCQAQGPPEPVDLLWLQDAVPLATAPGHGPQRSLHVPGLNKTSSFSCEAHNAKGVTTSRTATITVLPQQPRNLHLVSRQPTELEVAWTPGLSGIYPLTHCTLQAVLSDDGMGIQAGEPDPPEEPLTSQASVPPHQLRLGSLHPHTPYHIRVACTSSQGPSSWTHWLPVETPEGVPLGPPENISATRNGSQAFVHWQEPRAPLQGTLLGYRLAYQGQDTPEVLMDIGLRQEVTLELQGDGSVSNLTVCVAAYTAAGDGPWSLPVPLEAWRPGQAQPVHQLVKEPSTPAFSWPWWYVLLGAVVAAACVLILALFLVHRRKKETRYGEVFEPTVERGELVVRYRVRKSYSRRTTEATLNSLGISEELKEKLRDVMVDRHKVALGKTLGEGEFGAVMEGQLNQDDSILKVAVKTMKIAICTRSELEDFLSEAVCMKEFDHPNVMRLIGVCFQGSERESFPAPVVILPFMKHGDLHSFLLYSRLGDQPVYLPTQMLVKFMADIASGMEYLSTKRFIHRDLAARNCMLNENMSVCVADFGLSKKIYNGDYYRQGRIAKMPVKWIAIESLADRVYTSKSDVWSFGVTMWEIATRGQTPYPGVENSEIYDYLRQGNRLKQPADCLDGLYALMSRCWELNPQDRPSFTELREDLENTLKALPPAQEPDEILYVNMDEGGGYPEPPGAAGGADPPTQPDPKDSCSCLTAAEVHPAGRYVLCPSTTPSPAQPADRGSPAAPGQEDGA

[6] = biological target: T6, Homo sapiens AXL-Mus musculus Ig2 domain (p33-AXL-mIg2) (human-mouse chimera, UniProt P30530 26-894); test: as above
T6 construct: Expressed in HEK293F cells; also called hsAXL-mmIg2; TH1021-mIg2
T6 chain: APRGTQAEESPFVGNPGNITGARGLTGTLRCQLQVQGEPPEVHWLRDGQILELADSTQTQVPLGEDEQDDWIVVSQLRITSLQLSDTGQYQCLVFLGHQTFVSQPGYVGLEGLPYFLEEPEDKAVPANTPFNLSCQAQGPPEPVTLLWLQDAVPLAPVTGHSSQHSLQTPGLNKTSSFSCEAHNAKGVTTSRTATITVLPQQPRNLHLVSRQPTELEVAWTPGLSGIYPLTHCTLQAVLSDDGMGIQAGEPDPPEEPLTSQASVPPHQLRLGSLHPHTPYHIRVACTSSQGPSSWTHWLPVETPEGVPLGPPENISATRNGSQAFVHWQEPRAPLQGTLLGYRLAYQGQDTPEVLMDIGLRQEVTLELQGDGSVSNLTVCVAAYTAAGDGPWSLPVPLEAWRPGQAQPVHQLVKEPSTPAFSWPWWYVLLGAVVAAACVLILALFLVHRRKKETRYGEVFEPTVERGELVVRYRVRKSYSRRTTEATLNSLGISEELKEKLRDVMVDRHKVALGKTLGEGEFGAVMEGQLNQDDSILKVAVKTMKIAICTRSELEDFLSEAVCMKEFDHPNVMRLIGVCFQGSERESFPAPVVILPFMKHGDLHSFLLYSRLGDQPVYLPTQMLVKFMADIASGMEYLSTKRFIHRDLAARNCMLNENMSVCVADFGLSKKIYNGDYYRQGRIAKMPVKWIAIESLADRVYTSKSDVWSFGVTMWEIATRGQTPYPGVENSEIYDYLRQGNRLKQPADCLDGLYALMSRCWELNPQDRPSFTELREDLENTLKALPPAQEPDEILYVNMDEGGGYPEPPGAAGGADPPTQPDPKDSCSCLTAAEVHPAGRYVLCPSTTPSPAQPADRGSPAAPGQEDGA

B1: IgG1-AXL-613-08 (antibody, V domains shown)
VH: QVQLVQSGAEVKKPGSSVKVSCKASGGTFSSYAINWMRQAPGQGLEWMGRIIPIFGIVNYAQKFQGRVTLTADKSTSTAYMELSSLRSEDTAVYYCARRGNYYGSGSPDVFDIWGQGTMVTVSS
VL: EIVLTQSPATLSLSPGERATLSCRASQSVSSYLAWYQQKPGQAPRLLIYDASNRATGIPARFSGSGSGTDFTLTISSLEPEDFAVYYCQQRSNWLTFGGGTKVEIK
For B1, the EC50 (human AXL (full length) [1]) was 0.0242 µg/mL and the “Maximal binding (Arbitrary units)” value (human AXL (full length) [1]) was 2210 arbitrary units.

B2: IgG1-AXL-140 (antibody, V domains shown)
VH: EVQLLESGGGLVQPGGSLRLSCAASGFTFSSYAMTWVRQAPGKGLEWVSAISISGASTFYADSVKGRFTISRDNSKNTLSLQMNSLRAEDTAVYFCRGYSGYVYDAFDIWGQGTMVTVSS
VL: DIQMTQSPSSLSASVGDRVTITCRASQGISNWLAWYQQKPEKAPKSLIYAASSLQSGVPSRFSGSGSGTDFTLTISSLQPEDFATYYCQQYNSYPLTFGGGTKVEIK
With B2 the EC50 (human AXL (full length) [1]) was 0.0026 µg/mL and the “Maximal binding (Arbitrary units)” value (human AXL (full length) [1]) was 2890 arbitrary units.

B3: IgG1-AXL-726-M101L (antibody, V domains shown)
VH: QVQLQQWGAGLLKPSETLSLTCAIDGGSFSGYYWSWIRQPPGKGLEWIGEISHSGRTNYNPSLKSRVTISIDTSKNQFSLKLSSVAAADTAVYYCARFITLIRGAIITHFDYWGQGALVTVSS
VL: B2 VL with N31S, N92H, L96Y, G100Q, V104L
notes: Expressed as human IgG1,κ
Binder B3 has an EC50 [2] of 0.25 µg/mL, a Kd (AXLECDHis) of 0.3 nM and a koff (AXLECDHis) of 6.9e-05 s⁻¹. It also gave a kon (AXLECDHis) of 210000 M⁻¹ s⁻¹ and an EC50 (human AXL (full length) [3]) of 0.184 µg/mL.

B4: IgG1-AXL-187 (antibody, V domains shown)
VH: B3 VH with Q3P, I24V, D25Y, Y33H, A86T, R97S, L101M, A105T, A117T
VL: B2 VL with N31S, N92H, L96Y, G100Q, V104L
With B4 the EC50 (human AXL (full length) [1]) was 0.0065 µg/mL and the “Maximal binding (Arbitrary units)” value (human AXL (full length) [1]) was 2560 arbitrary units.

B5: IgG1-AXL-154 (antibody, V domains shown)
VH: EVQLLDSGGGLVQPGGSLRLSCAASGFTFSSYAMSWVRQAPGKGLEWVSAISIGGGNAYYADSVKGRFTISRDNSKNTLYLQMNSLRAADTAVYYCAKPGFIMVRGPLDYWGQGALVTVSS
VL: not shown
B5: binds [4]; binds [5]; binds [6].
